# T1: integrin αvβ3 on β3-CHO cells (UniProt A0A9J7JSN3+P05106)
# T1 construct: expressed in transfected cells; host or cells: CHO
# T1 sequence (P05106 27-788): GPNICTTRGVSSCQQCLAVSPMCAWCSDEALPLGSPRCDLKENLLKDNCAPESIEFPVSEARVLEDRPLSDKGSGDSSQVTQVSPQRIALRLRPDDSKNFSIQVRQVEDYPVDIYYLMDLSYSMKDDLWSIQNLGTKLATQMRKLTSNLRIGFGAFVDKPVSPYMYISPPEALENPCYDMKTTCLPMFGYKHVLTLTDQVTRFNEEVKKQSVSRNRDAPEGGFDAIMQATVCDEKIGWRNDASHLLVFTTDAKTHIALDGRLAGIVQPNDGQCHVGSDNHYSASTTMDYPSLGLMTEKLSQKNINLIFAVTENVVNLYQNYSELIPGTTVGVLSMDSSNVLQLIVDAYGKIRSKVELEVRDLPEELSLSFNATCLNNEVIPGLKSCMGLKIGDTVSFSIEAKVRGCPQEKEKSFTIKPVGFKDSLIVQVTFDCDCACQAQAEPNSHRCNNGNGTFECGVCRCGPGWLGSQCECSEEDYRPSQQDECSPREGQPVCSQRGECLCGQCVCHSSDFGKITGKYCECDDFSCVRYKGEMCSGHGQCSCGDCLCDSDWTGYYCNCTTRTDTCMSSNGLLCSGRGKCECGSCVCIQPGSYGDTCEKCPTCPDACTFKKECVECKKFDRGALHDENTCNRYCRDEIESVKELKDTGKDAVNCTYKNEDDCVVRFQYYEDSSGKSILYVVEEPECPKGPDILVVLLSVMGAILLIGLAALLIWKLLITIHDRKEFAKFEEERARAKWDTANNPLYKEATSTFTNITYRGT
# T1 sequence (A0A9J7JSN3 31-1043): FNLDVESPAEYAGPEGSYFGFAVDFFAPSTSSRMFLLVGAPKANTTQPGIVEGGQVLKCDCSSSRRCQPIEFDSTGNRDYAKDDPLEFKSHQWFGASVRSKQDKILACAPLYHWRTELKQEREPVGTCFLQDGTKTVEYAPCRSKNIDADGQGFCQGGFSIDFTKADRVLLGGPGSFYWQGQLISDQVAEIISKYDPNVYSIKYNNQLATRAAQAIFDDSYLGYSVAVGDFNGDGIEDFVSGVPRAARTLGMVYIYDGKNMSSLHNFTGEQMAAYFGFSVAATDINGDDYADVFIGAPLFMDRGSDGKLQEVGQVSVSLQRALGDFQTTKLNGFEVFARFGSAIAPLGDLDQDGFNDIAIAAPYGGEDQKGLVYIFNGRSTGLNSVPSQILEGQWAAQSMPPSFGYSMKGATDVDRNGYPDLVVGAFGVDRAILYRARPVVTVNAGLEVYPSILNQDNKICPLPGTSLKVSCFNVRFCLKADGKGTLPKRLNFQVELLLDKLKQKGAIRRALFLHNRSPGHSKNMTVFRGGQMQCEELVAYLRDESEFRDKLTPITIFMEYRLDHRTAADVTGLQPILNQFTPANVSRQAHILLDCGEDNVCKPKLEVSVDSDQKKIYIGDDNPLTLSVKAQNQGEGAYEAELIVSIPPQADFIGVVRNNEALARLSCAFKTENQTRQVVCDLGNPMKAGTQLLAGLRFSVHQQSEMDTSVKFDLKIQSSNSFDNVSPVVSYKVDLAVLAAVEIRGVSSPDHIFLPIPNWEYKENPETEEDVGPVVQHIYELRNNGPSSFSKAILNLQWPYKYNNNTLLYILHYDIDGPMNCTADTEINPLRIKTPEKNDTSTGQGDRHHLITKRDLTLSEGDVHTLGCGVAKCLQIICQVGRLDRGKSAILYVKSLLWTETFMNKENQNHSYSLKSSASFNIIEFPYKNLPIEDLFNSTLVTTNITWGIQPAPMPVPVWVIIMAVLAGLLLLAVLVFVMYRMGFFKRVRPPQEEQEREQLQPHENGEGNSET
# B1: wt sPLA2-IIA: Secretory phospholipase A2 group IIA, wild type, recombinant from bacteria BL21, refolded (protein)
# chain: NLVNFHRMIKLTTGKEAALSYGFYGCHCGVGGRGSPKDATDRCCVTHDCCYKRLEKRGCGTKFLSYKFSNSGSRITCAKQDSCRSQLCECDKAAATCFARNKTTYNKKYQYYSNKHCRGSTPRC
# modifications: left off: small tags and cut ends
# Target: T1, integrin αvβ3 on β3-CHO cells
# Experiment: Adhesion of cells expressing recombinant αvβ3 (β3-CHO, β3-745) to immobilized sPLA2-IIA
# Format: cell-based, human
# Conditions: compared with mock-transfected cells
# Source text: FIG. 1. sPLA2-IIA binding to integrin αvβ3. a) Cell adhesion to sPLA2-IIA in an αvβ3- and proteoglycans-dependent manner. Wells of a 96-well microtiter plate were coated with sPLA2-IIA at indicated coating concentrations. Remaining protein-binding sites were blocked with BSA. CHO cells expressing recombinant αvβ3 (β3-CHO), mock-transfected CHO cells, proteoglycans-deficient CHO cell variant (pgs745), expressing recombinant αvβ3 (β3-745), and mock-transfected pgs745 cells (10^5 cells per well in 100 μl Tyrodes-HEPES with 1 mM MgCl2) were added to the wells. After incubating for 1 h at 37° C., unbound cells were removed by gentle rinsing and bound cells were quantified using endogenous phosphatase activity (Prater, C. A. et al., J. Cell Biol., 112:1031-1040 (1991)). Data is shown as means+/−SEM of triplicate experiments. b) Effect of anti-(33 mAb 7E3 on adhesion of β3-CHO cells to immobilized sPLA2-IIA. […] Bound FITC (FL1) and PE (FL2) were quantified in flow cytometry. […] Bound αvβ3 was detected using peroxidase-conjugated anti-6His antibody. Bound peroxidase activity was measured. […]
molecule,measurement,value
B1,adhesion of β3-CHO and β3-745 cells to immobilized sPLA2-IIA,much higher level than mock-transfected CHO or 745 cells
